Measured values published in PMC4658334, “Reassessment of MxiH subunit orientation and fold within native Shigella T3SS needles using surface labelling and solid-state NMR” (Journal of Structural Biology, 2015).

How the values were obtained:
[1] = biological target: the molecule itself; test: negative-stain electron microscopy of purified needles; purified needle preparations, about 0.1 μg/ml, on carbon-coated grids, stained with 1% phosphotungstic acid pH 7; self-association of the subunit into the needle polymer
[2] = biological target: the molecule itself; test: solid-state NMR; 5-7 mg of uniformly 13C,15N labelled natively grown needles packed in a 1.9 mm rotor; 20.0 T, 18 kHz MAS; self-association of the subunit into the needle polymer

| Protein | binding result [1] | binding result [2] |
| --- | --- | --- |
| MxiH L32C (natural protein, MxiH, needle subunit of the T3SS, Shigella flexneri, with leucine 32 changed to cysteine; cloned into pACT3 via NdeI and HindIII; Printed mass of the unlabelled subunit is 9123.5 Da; source: S. flexneri, expressed from pACT3 with 200 μM IPTG; needles purified) MSVTVPNDDWTLSSLSETFDDGTQTLQGELTCALDKLAKNPSNPQLLAEYQSKLSEYTLYRNAQSNTVKVIKDVDAAIIQNFR | binds | – |
| MxiH, needle subunit of the Shigella flexneri type III secretion system (wild type, serotype 5) (natural protein, uniformly 13C,15N labelled, MxiH, needle subunit of the T3SS, Shigella flexneri serotype 5; expressed from pACT3mxiH; arranged as a helical polymer (needle); Helical polymer; also called WT MxiH; native MxiH needles; source: S. flexneri ΔmxiH (pACT3mxiH), 200 μM IPTG, M9-type minimal medium; in vivo assembled needles shaved from the bacterial surface and purified) MSVTVPNDDWTLSSLSETFDDGTQTLQGELTLALDKLAKNPSNPQLLAEYQSKLSEYTLYRNAQSNTVKVIKDVDAAIIQNFR | – | binds |
| MxiH V68C (natural protein, MxiH, needle subunit of the T3SS, Shigella flexneri, with valine 68 changed to cysteine; gene synthesized and cloned into pACT3 via NdeI and HindIII; Printed mass of the unlabelled subunit is 9137.5 Da; source: S. flexneri, expressed from pACT3 with 200 μM IPTG; needles purified) MSVTVPNDDWTLSSLSETFDDGTQTLQGELTLALDKLAKNPSNPQLLAEYQSKLSEYTLYRNAQSNTCKVIKDVDAAIIQNFR | binds | – |
